This is an account of results in paper PMC10397247.

Holding throughout (assay): two-hybrid library CCNG1;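 further: natural log of median RNA to DNA barcode read ratio; higher means stronger binding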
One experiment deals with T1, 4H3601-bH.
T1 chain: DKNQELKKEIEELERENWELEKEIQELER

For a further experiment, the target named is T2, 4H3907-bH.
T2 chain: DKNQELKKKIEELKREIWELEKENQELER

Another experiment addresses T3, 4H4038-bH.
T3 chain: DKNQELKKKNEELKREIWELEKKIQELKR

The target of another experiment is T4, 4H797-bH.
T4 chain: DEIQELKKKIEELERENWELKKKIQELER

In the next experiment the target is T5, 4H3601-bA.
T5 chain: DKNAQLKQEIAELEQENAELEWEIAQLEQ

The target in a further experiment is T6, 4H3907-bA.
T6 chain: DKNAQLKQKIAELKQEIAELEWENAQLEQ

A further experiment has as its target T7, 4H4038-bA.
T7 chain: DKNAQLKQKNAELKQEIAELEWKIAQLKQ

Another experiment has as its target T8, 4H932-bA.
T8 chain: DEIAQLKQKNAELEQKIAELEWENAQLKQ

The target of a further experiment is T9, 4H949-bA.
T9 chain: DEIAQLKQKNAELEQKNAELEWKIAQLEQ

For a further experiment, the target named is T10, P1bHq.
T10 chain: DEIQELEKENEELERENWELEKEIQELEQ

A further experiment has as its target T11, 4H1831-bA.
T11 chain: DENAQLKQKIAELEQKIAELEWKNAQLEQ

Another experiment deals with T12, 4H2586-bA.
T12 chain: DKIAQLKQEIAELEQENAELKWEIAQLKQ

For the next experiment, the target named is T13, 4H2627-bA.
T13 chain: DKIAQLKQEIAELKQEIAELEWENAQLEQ

A further experiment addresses T14, 4H2673-bA.
T14 chain: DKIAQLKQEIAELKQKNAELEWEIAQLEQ

For a further experiment, the target named is T15, 4H2697-bA.
T15 chain: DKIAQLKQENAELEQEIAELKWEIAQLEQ

In a further experiment the target is T16, 4H2702-bA.
T16 chain: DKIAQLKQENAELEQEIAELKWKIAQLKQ

A further experiment addresses T17, 4H3010-bA.
T17 chain: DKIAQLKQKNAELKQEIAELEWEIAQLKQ

The target of another experiment is T18, 4H3112-bA.
T18 chain: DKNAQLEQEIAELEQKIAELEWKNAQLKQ

The target of a further experiment is T19, 4H3112-bH.
T19 chain: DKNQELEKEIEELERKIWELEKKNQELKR

Another experiment addresses T20, 4H3427-bA.
T20 chain: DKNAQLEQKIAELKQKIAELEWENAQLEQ

The target in another experiment is T21, 4H346-bA.
T21 chain: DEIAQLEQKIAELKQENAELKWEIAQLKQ

The next experiment addresses T22, 4H3926-bA.
T22 chain: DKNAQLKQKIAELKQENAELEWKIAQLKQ

Another experiment addresses T23, 4H4073-bA.
T23 chain: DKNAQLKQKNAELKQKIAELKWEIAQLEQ

The next experiment has as its target T24, 4H457-bA.
T24 chain: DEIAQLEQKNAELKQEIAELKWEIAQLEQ

In a further experiment the target is T25, 4H575-bA.
T25 chain: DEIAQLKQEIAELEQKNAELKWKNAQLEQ

For another experiment, the target named is T26, 4H683-bA.
T26 chain: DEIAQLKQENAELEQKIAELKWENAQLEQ

The target in a further experiment is T27, 4H754-bA.
T27 chain: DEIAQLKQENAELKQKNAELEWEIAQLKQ

Another experiment concerns the target T28, 4H780-bA.
T28 chain: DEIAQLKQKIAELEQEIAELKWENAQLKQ

A further experiment deals with T29, 4H797-bA.
T29 chain: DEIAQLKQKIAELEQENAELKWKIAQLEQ

The next experiment addresses T30, 4H855-bA.
T30 chain: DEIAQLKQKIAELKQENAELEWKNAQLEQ

Another experiment deals with T31, 4H918-bA.
T31 chain: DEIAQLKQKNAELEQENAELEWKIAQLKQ

A further experiment concerns the target T32, 4H953-bA.
T32 chain: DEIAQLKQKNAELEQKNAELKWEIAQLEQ

The target of another experiment is T33, 4H968-bA.
T33 chain: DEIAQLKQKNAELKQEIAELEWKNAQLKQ

Another experiment concerns the target T34, 4H3041-bN.
T34 chain: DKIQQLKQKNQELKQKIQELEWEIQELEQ

For a further experiment, the target named is T35, 4H3297-bN.
T35 chain: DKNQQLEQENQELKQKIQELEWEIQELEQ

A further experiment deals with T36, 4H3364-bN.
T36 chain: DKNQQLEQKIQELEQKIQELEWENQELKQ

In the next experiment the target is T37, 4H3381-bN.
T37 chain: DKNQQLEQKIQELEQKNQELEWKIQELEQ

The target of a further experiment is T38, 4H349-bN.
T38 chain: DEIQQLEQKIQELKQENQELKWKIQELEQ

The target in the next experiment is T39, 4H56-bN.
T39 chain: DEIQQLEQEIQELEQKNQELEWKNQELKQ

The target in the next experiment is T40, 4H730-bN.
T40 chain: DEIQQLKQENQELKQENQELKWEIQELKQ

Another experiment has as its target T41, 4H796-bN.
T41 chain: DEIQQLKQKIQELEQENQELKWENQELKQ

Another experiment deals with T42, 4H932-bN.
T42 chain: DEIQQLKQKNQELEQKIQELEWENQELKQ

The target in the next experiment is T43, 4H949-bN.
T43 chain: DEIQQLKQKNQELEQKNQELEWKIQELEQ

The next experiment has as its target T44, 4H72-bN.
T44 chain: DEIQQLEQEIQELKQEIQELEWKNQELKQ

Another experiment concerns the target T45, 4H754-bN.
T45 chain: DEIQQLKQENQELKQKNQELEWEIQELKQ

In another experiment the target is T46, 4H797-bN.
T46 chain: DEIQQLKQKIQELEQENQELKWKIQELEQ

The target in a further experiment is T47, 4H883-bN.
T47 chain: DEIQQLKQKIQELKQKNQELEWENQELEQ

The next experiment has as its target T48, 4H908-bN.
T48 chain: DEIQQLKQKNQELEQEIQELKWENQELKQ

The target of a further experiment is T49, 4H918-bN.
T49 chain: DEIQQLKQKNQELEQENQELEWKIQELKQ

The target of a further experiment is T50, 4H953-bN.
T50 chain: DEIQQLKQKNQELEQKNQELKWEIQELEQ

For a further experiment, the target named is T51, 4H967-bN.
T51 chain: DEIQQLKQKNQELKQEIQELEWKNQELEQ

For a further experiment, the target named is T52, O13-bP.
T52 chain: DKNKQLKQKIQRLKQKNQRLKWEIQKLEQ

On to DKNQELKKEIEELERENWELEKEIQELER [4H3601-bH], for which the interaction score is -1.34 in the experiment with 4H3601-bH, -0.759 with 4H3907-bH, -1.44 with 4H4038-bH and -1.38 in the experiment with 4H797-bH.
In the case of DKNAQLKQEIAELEQENAELEWEIAQLEQ [4H3601-bA], the interaction score is -0.859 in the experiment with 4H3601-bA, -1.15 with 4H3907-bA and -1.28 in the experiment with 4H4038-bA.
Take DEIAQLKQKNAELEQKIAELEWENAQLKQ [4H932-bA]: the interaction score is 0.694 in the experiment with 4H932-bA, -0.925 with 4H949-bA and -0.886 with P1bHq.
Regarding DENAQLKQKIAELEQKIAELEWKNAQLEQ [4H1831-bA], the interaction score in the experiment with 4H1831-bA is 0.937; with 4H2586-bA it was -0.446; in the experiment with 4H2627-bA it was 1.11; in the experiment with 4H2673-bA, 0.133; with 4H2697-bA it was -1.55; with 4H2702-bA it was -0.589. Moreover, the interaction score is 0.376 in the experiment with 4H3010-bA; 0.716 in the experiment with 4H3112-bA; -0.386 with 4H3112-bH; 0.113 with 4H3427-bA; -0.307 in the experiment with 4H346-bA; -0.904 with 4H3926-bA. The interaction score with 4H4073-bA was -0.475; in the experiment with 4H457-bA, -0.519; with 4H575-bA, -0.581; with 4H683-bA it was -1.5; in the experiment with 4H754-bA it was -0.649; in the experiment with 4H780-bA, -1.1. In addition, the interaction score in the experiment with 4H797-bA is -0.44; with 4H855-bA, 0.246; with 4H918-bA, -0.817; with 4H953-bA, -0.824; with 4H968-bA, -0.46.
As for DKIQQLKQKNQELKQKIQELEWEIQELEQ [4H3041-bN], the interaction score is 0.754 in the experiment with 4H3041-bN; -2.23 with 4H3297-bN; -1.42 with 4H3364-bN; -1.06 with 4H3381-bN; -1.54 in the experiment with 4H349-bN; -0.997 in the experiment with 4H56-bN. Also, the interaction score with 4H730-bN is -1.37; with 4H796-bN, -1.35; with 4H932-bN it was -1.42; with 4H949-bN, -1.33; with P1bHq, 0.154.
For DEIQQLEQEIQELKQEIQELEWKNQELKQ [4H72-bN], the interaction score was 0.334 with 4H72-bN; -1.48 with 4H754-bN; 0.632 in the experiment with 4H797-bN; 0.619 with 4H883-bN; -0.234 with 4H908-bN; 0.713 with 4H918-bN. For the same molecule, the interaction score in the experiment with 4H953-bN is -0.727; in the experiment with 4H967-bN, -0.25; with O13-bP, -0.283.
